Experimental data published in patent US20190169637A1.

What was measured:
CD19 = CD19 (UniProt P15391); experiment: cell-based or functional assay
[1] = tested on: Sleeping Beauty transposase SB100X (hyperactive) (synthetic construct (reconstructed Tc1-like fish transposon)); experiment: cell_activity; conditions: day 14, CD8+ T cells, n=7

Chain of UniProt P15391 (P15391 20-556 limits assumed): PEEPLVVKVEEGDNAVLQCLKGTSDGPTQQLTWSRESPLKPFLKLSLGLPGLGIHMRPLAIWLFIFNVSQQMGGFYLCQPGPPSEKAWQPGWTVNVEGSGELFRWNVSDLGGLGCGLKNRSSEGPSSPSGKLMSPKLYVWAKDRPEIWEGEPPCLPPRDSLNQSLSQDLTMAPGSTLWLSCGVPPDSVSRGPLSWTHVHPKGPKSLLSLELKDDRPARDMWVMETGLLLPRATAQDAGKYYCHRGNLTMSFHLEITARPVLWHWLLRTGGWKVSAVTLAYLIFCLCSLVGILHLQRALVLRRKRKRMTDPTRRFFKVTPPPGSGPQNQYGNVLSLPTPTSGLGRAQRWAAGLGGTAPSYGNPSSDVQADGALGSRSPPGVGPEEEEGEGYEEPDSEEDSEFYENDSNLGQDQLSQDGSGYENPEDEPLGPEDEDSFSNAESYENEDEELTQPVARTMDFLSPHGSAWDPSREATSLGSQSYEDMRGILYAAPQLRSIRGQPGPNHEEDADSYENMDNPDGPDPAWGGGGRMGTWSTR

## CD19-CAR (FMC63 targeting domain, IgG4-Fc Hinge spacer, CD3zeta and 4-1BB costimulation) (from UniProt P01861 99-110; Q07011 214-255; P20963 52-163)
CD19
  proliferation by CFSE dilution (cell divisions in 72 hours): > 3

## CD19-CAR_EGFRt transposon in pT2/HB minicircle
[1]; SB100X from minicircle
  activity (% EGFRt+ cells): 49.8

## CD19-CAR_EGFRt transposon in pT2/HB plasmid
[1]; SB100X from plasmid
  activity (% EGFRt+ cells): 12.8
